T1: His-tagged recombinant human glycyl-tRNA synthetase (GRS), 685 amino acids (human, UniProt P41250 55-739)
T1 construct: Expressed in E. coli; also called His-GRS; his-tagged GRS; not shown: His tag from vector pET-28a (EcoRI/XhoI)
T1 sequence: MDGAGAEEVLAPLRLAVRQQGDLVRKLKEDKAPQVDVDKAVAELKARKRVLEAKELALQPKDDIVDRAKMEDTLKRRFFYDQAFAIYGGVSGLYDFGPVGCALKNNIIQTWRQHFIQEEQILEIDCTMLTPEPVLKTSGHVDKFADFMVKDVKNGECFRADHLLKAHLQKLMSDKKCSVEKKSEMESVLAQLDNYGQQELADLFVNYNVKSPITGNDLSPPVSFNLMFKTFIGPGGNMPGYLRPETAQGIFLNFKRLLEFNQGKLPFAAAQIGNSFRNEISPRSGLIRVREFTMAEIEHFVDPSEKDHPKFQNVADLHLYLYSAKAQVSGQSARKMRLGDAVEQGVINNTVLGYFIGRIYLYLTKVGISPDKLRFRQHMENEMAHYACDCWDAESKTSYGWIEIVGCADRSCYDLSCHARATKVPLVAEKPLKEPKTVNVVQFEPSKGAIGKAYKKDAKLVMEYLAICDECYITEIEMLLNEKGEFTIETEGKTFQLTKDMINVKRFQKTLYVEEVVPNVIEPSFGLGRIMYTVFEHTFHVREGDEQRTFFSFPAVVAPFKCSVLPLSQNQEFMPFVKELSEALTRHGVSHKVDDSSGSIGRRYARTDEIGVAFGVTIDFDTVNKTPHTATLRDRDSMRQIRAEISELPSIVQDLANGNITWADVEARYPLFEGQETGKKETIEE


Target: T1, His-tagged recombinant human …
Assay: ELISA: plate coated with His-GRS or BSA, Fc-fused cadherin added, detected with anti-human IgG1 Fc-HRP; axis OD 490nm
Protocol: (A) A panel of Fc-fused soluble cadherin family proteins was bound to His-tagged GRS or to BSA-coated plates, and complexes were detected with the IgG1 Fc-HRP (Thermo) reagent. (B) To confirm the binding between cadherins and GRS, Fc-CDH2, 6 and 18 were incubated with His-GRS. Fc-CDHs were precipitated with protein A/G agarose and co-precipitated GRS was determined by immunoblotting. (C) To calculate the equilibrium dissociation constant (IQ), immobilized Fc-fused (to gold chips) cadherins were incubated with GRS (31.25 nM˜1 uM). Binding of GRS to CDH6 was determined by surface plasmon resonance and expressed as resonance units (RU). (D) To confirm the binding between CDH6 and GRS domain peptides, Fc-CDH6 was incubated with different domains (F1, 2, 3 and 4) of GRS that were expressed as the GST fusion proteins. GST-GRS proteins were precipitated with GSH-sepharose beads and co-precipitated CDH6 was determined by immunoblotting. (E) Five difference cancers cells were determined for the expression of CDH6 by immunoblotting. (F) HCT116 cells were transfected with non-specific siRNA controls (si-con) or two differently designed siRNAs targeting CDH6 (#1 and #2), treated with biotinylated GRS (15 nM), and the binding of GRS was analyzed by immunoblotting. (G) HCT116 cells were transfected with si-con and si-CDH6 as described above, and cell binding of GRS was measured by FACS analysis. (H) HCT116 cells were incubated with His-GRS (150 nM). To neutralize the effects of GRS, Fc-fused CDH6 (300 nM) was added and the cell viability was determined by the MTT assay. Error bars represent standard deviation. (I) The binding between CDH6 and GRS domain peptides was again confirmed by ELISA assay.
To identifying the receptor of GRS, a Maxisorp plate (Nunc, Rochester, N.Y.) was used for an ELISA detection. The plate were coated with purified his-tagged GRS (1 ug/ml) or BSA (1 ug/ml) in phosphate buffer saline and then blocked (PBS, 4% non-fat milk). Fc-fusion cadherin family proteins (1 ug/ml) were added to the plate and after washing with PBST (0.05% Tween20), the plates were incubated with anti-human IgG1 Fc-HRP (Thermo, Waltham, Mass.). […]

Binder	binding result
CDH1 (Fc fusion, not shown: a dimerising Fc or GST; small tags and cut ends, one of the remaining CDHs (group m5); also called Fc-CDH1; Fc-fused soluble cadherin-1) DWVIPPISCPENEKGPFPKNLVQIKSNKDKEGKVFYSITGQGADTPPVGVFIIERETGWLKVTEPLDRERIATYTLFSHAVSSNGNAVEDPMEILITVTDQNDNKPEFTQEVFKGSVMEGALPGTSVMEVTATDADDDVNTYNAAIAYTILSQDPELPDKNMFTINRNTGVISVVTTGLDRESFPTYTLVVQAADLQGEGLSTTATAVITVTDTNDNPPIFNPTTYKGQVPENEANVVITTLKVTDADAPNTPAWEAVYTILNDDGGQFVVTTNPVNNDGILKTAKGLDFEAKQQYILHVAVTNVVPFEVSLTTSTATVTVDVLDVNEAPIFVPPEKRVEVSEDFGVGQEITSYTAQEPDTFMEQKITYRIWRDTANWLEINPDTGAISTRAELDREDFEHVKNSTYTALIIATDNGSPVATGTGTLLLILSDVNDNAPIPEPRTIFFCERNPKPQVINIIDADLPPNTSPFTAELTHGASANWTIQYNDPTQESIILKPKMALEVGDYKINLKLMDNQNKDQVTTLEVSVCDCEGAAGVCRKAQPVEAGLQIPA	no binding (tested: 1 ug/ml (single concentration))
CDH5 (Fc fusion, not shown: a dimerising Fc or GST; small tags and cut ends, one of the remaining CDHs (group m5); also called Fc-CDH5; Fc-fused soluble cadherin-5) DWIWNQMHIDEEKNTSLPHHVGKIKSSVSRKNAKYLLKGEYVGKVFRVDAETGDVFAIERLDRENISEYHLTAVIVDKDTGENLETPSSFTIKVHDVNDNWPVFTHRLFNASVPESSAVGTSVISVTAVDADDPTVGDHASVMYQILKGKEYFAIDNSGRIITITKSLDREKQARYEIVVEARDAQGLRGDSGTATVLVTLQDINDNFPFFTQTKYTFVVPEDTRVGTSVGSLFVEDPDEPQNRMTKYSILRGDYQDAFTIETNPAHNEGIIKPMKPLDYEYIQQYSFIVEATDPTIDLRYMSPPAGNRAQVIINITDVDEPPIFQQPFYHFQLKENQKKPLIGTVLAMDPDAARHSIGYSIRRTSDKGQFFRVTKKGDIYNEKELDREVYPWYNLTVEAKELDSTGTPTGKESIVQVHIEVLDENDNAPEFAKPYQPKVCENAVHGQLVLQISAIDKDITPRNVKFKFILNTENNFTLTDNHDNTANITVKYGQFDREHTKVHFLPVVISDNGMPSRTGTSTLTVAVCKCNEQGEFTFCEDMAAQVGVSIQ	no binding (tested: 1 ug/ml (single concentration))
CDH16 (Fc fusion, not shown: a dimerising Fc or GST; small tags and cut ends, one of the remaining CDHs (group m5); also called Fc-CDH16; Fc-fused soluble cadherin-16) KAQPAELSVEVPENYGGNFPLYLTKLPLPREGAEGQIVLSGDSGKATEGPFAMDPDSGFLLVTRALDREEQAEYQLQVTLEMQDGHVLWGPQPVLVHVKDENDQVPHFSQAIYRARLSRGTRPGIPFLFLEASDRDEPGTANSDLRFHILSQAPAQPSPDMFQLEPRLGALALSPKGSTSLDHALERTYQLLVQVKDMGDQASGHQATATVEVSIIESTWVSLEPIHLAENLKVLYPHHMAQVHWSGGDVHYHLESHPPGPFEVNAEGNLYVTRELDREAQAEYLLQVRAQNSHGEDYAAPLELHVLVMDENDNVPICPPRDPTVSIPELSPPGTEVTRLSAEDADAPGSPNSHVVYQLLSPEPEDGVEGRAFQVDPTSGSVTLGVLPLRAGQNILLLVLAMDLAGAEGGFSSTCEVEVAVTDINDHAPEFITSQIGPISLPEDVEPGTLVAMLTAIDADLEPAFRLMDFAIERGDTEGTFGLDWEPDSGHVRLRLCKNLSYEAAPSHEVVVVVQSVAKLVGPGPGPGATATVTVLVERVMPPPKLDQESYEASVPISAPAGSFLLTIQPSDPISRTLRFSLVNDSEGWLCIEKFSGEVHTAQSLQGAQPGDTYTVLVEAQDTDEPRLSASAPLVIHFLKAPPAPALTLAPVPSQYLCTPRQDHGLIVSGPSKDPDLASGHGPYSFTLGPNPTVQRDWRLQTLNGSHAYLTLALHWVEPREHIIPVVVSHNAQMWQLLVRVIVCRCNVEGQCMRKVGRMKGMPTKLSA	no binding (tested: 1 ug/ml (single concentration))
CDH11 (Fc fusion, not shown: a dimerising Fc or GST; small tags and cut ends, one of the remaining CDHs (group m5); also called Fc-CDH11; Fc-fused soluble cadherin-11) GWVWNQFFVIEEYTGPDPVLVGRLHSDIDSGDGNIKYILSGEGAGTIFVIDDKSGNIHATKTLDREERAQYTLMAQAVDRDTNRPLEPPSEFIVKVQDINDNPPEFLHETYHANVPERSNVGTSVIQVTASDADDPTYGNSAKLVYSILEGQPYFSVEAQTGIIRTALPNMDREAKEEYHVVIQAKDMGGHMGGLSGTTKVTITLTDVNDNPPKFPQSVYQMSVSEAAVPGEEVGRVKAKDPDIGENGLVTYNIVDGDGMESFEITTDYETQEGVIKLKKPVDFETKRAYSLKVEAANVHIDPKFISNGPFKDTVTVKISVEDADEPPMFLAPSYIHEVQENAAAGTVVGRVHAKDPDAANSPIRYSIDRHTDLDRFFTINPEDGFIKTTKPLDREETAWLNITVFAAEIHNRHQEAKVPVAIRVLDVNDNAPKFAAPYEGFICESDQTKPLSNQPIVTISADDKDDTANGPRFIFSLPPEIIHNPNFTVRDNRDNTAGVYARRGGFSRQKQDLYLLPIVISDGGIPPMSSTNTLTIKVCGCDVNGALLSCNAEAYILNAGLST	no binding (tested: 1 ug/ml (single concentration))
CDH8 (Fc fusion, not shown: a dimerising Fc or GST; small tags and cut ends, one of the remaining CDHs (group m5); also called Fc-CDH8; Fc-fused soluble cadherin-8) GWVWNQMFVLEEFSGPEPILVGRLHTDLDPGSKKIKYILSGDGAGTIFQINDVTGDIHAIKRLDREEKAEYTLTAQAVDWETSKPLEPPSEFIIKVQDINDNAPEFLNGPYHATVPEMSILGTSVTNVTATDADDPVYGNSAKLVYSILEGQPYFSIEPETAIIKTALPNMDREAKEEYLVVIQAKDMGGHSGGLSGTTTLTVTLTDVNDNPPKFAQSLYHFSVPEDVVLGTAIGRVKANDQDIGENAQSSYDIIDGDGTALFEITSDAQAQDGIIRLRKPLDFETKKSYTLKVEAANVHIDPRFSGRGPFKDTATVKIVVEDADEPPVFSSPTYLLEVHENAALNSVIGQVTARDPDITSSPIRFSIDRHTDLERQFNINADDGKITLATPLDRELSVWHNITIIATEIRNHSQISRVPVAIKVLDVNDNAPEFASEYEAFLCENGKPGQVIQTVSAMDKDDPKNGHYFLYSLLPEMVNNPNFTIKKNEDNSLSILAKHNGFNRQKQEVYLLPIIISDSGNPPLSSTSTLTIRVCGCSNDGVVQSCNVEAYVLPIGLSM	no binding (tested: 1 ug/ml (single concentration))
CDH13 (Fc fusion, not shown: a dimerising Fc or GST; small tags and cut ends, one of the remaining CDHs (group m5); also called Fc-CDH13; Fc-fused soluble cadherin-13) SIVVSPILIPENQRQPFPRDVGKVVDSDRPERSKFRLTGKGVDQEPKGIFRINENTGSVSVTRTLDREVIAVYQLFVETTDVNGKTLEGPVPLEVIVIDQNDNRPIFREGPYIGHVMEGSPTGTTVMRMTAFDADDPATDNALLRYNIRQQTPDKPSPNMFYIDPEKGDIVTVVSPALLDRETLENPKYELIIEAQDMAGLDVGLTGTATATIMIDDKNDHSPKFTKKEFQATVEEGAVGVIVNLTVEDKDDPTTGAWRAAYTIINGNPGQSFEIHTNPQTNEGMLSVVKPLDYEISAFHTLLIKVENEDPLVPDVSYGPSSTATVHITVLDVNEGPVFYPDPMMVTRQEDLSVGSVLLTVNATDPDSLQHQTIRYSVYKDPAGWLNINPINGTVDTTAVLDRESPFVDNSVYTALFLAIDSGNPPATGTGTLLITLEDVNDNAPFIYPTVAEVCDDAKNLSVVILGASDKDLHPNTDPFKFEIHKQAVPDKVWKISKINNTHALVSLLQNLNKANYNLPIMVTDSGKPPMTNITDLRVQVCSCRNSKVDCNAAG	no binding (tested: 1 ug/ml (single concentration))
CDH20 (Fc fusion, not shown: a dimerising Fc or GST; small tags and cut ends, one of the remaining CDHs (group m5); also called Fc-CDH20; Fc-fused soluble cadherin-20) SWVWNQFFVLEEYTGTDPLYVGKLHSDMDRGDGSIKYILSGEGAGIVFTIDDTTGDIHAIQRLDREERAQYTLRAQALDRRTGRPMEPESEFIIKIQDINDNEPKFLDGPYVATVPEMSPVGTSVIQVTATDADDPTYGNSARVVYSILQGQPYFSVDSKTGVIRTALMNMDREAKEYYEVIIQAKDMGGQLGGLAGTTTVNITLSDVNDNPPRFPQKHYQMSVLESAPISSTVGRVFAKDLDEGINAEMKYTIVDGDGADAFDISTDPNFQVGIITVKKPLSFESKKSYTLKVEGANPHLEMRFLNLGPFQDTTTVHISVEDVDEPPVFEPGFYFVEVPEDVAIGTTIQIISAKDPDVTNNSIRYSIDRSSDPGRFFYVDITTGALMTARPLDREEFSWHNITVLAMEMNNPSQVGSVPVTIKVLDVNDNAPEFPRFYEAFVCENAKAGQLIQTVSAVDQDDPRNGQHFYYSLAPEAANNPNFTIRDNQDNTARILTRRSGFRQQEQSVFHLPILIADSGQPVLSSTGTLTIQVCSCDDDGHVMSCSPEAYMLPVSLSR	no binding (tested: 1 ug/ml (single concentration))

Reference: patent publication US20140220596A1 (MEDICINAL BIOCONVERGENCE RESEARCH CENTER, published 2014)
